± gives the standard deviation.
Experiment: protein stability index of a GFP-peptide fusion (GPS, HEK-293T) (PSI 1-6); higher = more stable
[1] = treatment: DMSO, c terminus: a fixed tail appended
[2] = treatment: MLN4924 1 uM, 8 h, c terminus: a fixed tail appended
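Also: 24-mer peptide tiles fused after GFP, lentivirally expressed, FACS-sorted into six equal bins by GFP/DsRed ratio, decoded by Illumina sequencing, PSI is the read-weighted mean bin number.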

| Sequence | protein stability index [1] | protein stability index [2] | protein stability index (treatment: DMSO, c terminus: native) | protein stability index (treatment: MLN4924 1 uM, 8 h, c terminus: native) |
| --- | --- | --- | --- | --- |
| FYLALYKQMSFLEKRGCPRTALEY [TCF25] | 2.66 ± 0.4 | 2.01 ± 0.4 | – | – |
| RTPLMKAARAGHVCTVQFLISKGA [ANKRD17] | 2.27 ± 0.37 | 2.46 ± 0.33 | – | – |
| AWLNYPCFKNWDGSPVSSWILLAE [OAS1] | 2.58 ± 0.34 | 2.3 ± 0.23 | – | – |
| VPHNGSSEATLPAQMSTLHVSPPP [PDLIM4] | 4.87 ± 0.17 | 4.73 ± 0.19 | – | – |
| ELVGSGYRMSLVKRRFATGMYLVS [FCHO1] | 2.46 ± 0.64 | 2.26 ± 0.43 | – | – |
| HYMEENLMDGGDLPSVTDIRRPRL [PLK2] | 4.15 ± 0.16 | 4.22 ± 0.13 | – | – |
| TFWASWRAFAQIGPARSGFRLETL [MIR22HG] | 2.73 ± 0.42 | 2.47 ± 0.41 | – | – |
| LSLKRELSWYRGRRPRTAFTQNQI [HESX1] | 2.41 ± 0.27 | 2.66 ± 0.14 | – | – |
| LASYLEKVRALEEANADLEVKIRD [KRT13] | 3.52 ± 0.22 | 3.56 ± 0.26 | – | – |
| LTRVLAEMREQYEAMAEKNRRDVE [KRT15] | 3.47 ± 0.31 | 3.93 ± 0.28 | – | – |
| DVSSTEEFLELSPQKLKEVISLEK [GAN] | 4.88 ± 0.18 | 4.87 ± 0.16 | – | – |
| VRAHQDTQRRTSMGGTQQQFVEGV [CTNNB1] | 4.232 ± 0.018 | 4.24 ± 0.14 | – | – |
| AAAHASVDIKDVLDFYKQWKEIG [SMG5] | – | – | 3.45 ± 0.3 | 3.54 ± 0.55 |
| VGDEFLNCKLATRAKDFLPADIQA [SNX8] | 2.88 ± 0.26 | 2.92 ± 0.27 | – | – |
| GTPADTGDLSPGHGASAPSVSREA [PWWP2B] | 5.29 ± 0.18 | 5.56 ± 0.22 | – | – |
| KIESLMDEIEFLKKLHEEELRDLQ [PRPH] | 3.14 ± 0.23 | 3.61 ± 0.35 | – | – |
| RKKQHICDECGKHFSQGSALILHQ [ZNF24] | 3.53 ± 0.21 | 3.62 ± 0.41 | – | – |
| PHWLDKWMLTRKQFGLLSFFFAVL [STEAP1] | 2.27 ± 0.28 | 2.26 ± 0.38 | – | – |
| RDVKPENFLIGRQGNKKEHVIHII [CSNK1G1] | 2.26 ± 0.42 | 2.33 ± 0.21 | – | – |
| LGGAAFLGTAIFIEADRRRAQLHV [SPNS1] | 2.35 ± 0.74 | 2.32 ± 0.53 | – | – |
| MGPYNPDTCPEVGFFDVLGNDRRR [ACBD3] | 4.08 ± 0.37 | 4.02 ± 0.35 | – | – |
| LAFVGGLPLAYQQTSAFARQPRDE [TMEM175] | 3 ± 0.31 | 3.06 ± 0.15 | – | – |

| Sequence | protein stability index [1] | protein stability index [2] | protein stability index (treatment: DMSO, c terminus: native) | protein stability index (treatment: MLN4924 1 uM, 8 h, c terminus: native) |
| --- | --- | --- | --- | --- |
| ACRVTELQQQPLCTSVNTIYDNAV [LRRC59] | 2.68 ± 0.4 | 2.61 ± 0.25 | – | – |
| SNRGAYVKLGPALTPHIVQYQANK [PPEF2] | 2.9 ± 0.38 | 2.99 ± 0.41 | – | – |
| SETPQETYRKVMNWKETLVFPPEV [STK38L] | 3.61 ± 0.53 | 3.7 ± 0.3 | – | – |
| SEDAVGGATLGQTTSEEAVGGATL [HDAC6] | 5.54 ± 0.15 | 5.18 ± 0.4 | – | – |
| GMLKEGVRLDRVRGGRQKYKRRID [ESRRG] | 4.19 ± 0.14 | 4.15 ± 0.33 | – | – |
| RHSKGLQILGQTLKASMRELGLLI [KCNA1] | 2.96 ± 0.5 | 2.89 ± 0.15 | – | – |
| LEKDFSIYGGELGPMMKLKRHFVA [ACSBG2] | 2.23 ± 0.2 | 2.26 ± 0.53 | – | – |
| GKEVVKQLEEGLKDTDLARVRRFQ [M1AP] | 4.58 ± 0.35 | 4.62 ± 0.2 | – | – |
| PLFMAAFDGRHSQTLKAMVQAWPF [PRAME] | 2.16 ± 0.13 | 2.07 ± 0.31 | – | – |
| WCSVAYWEHRTRVGRLYAVYDQAV [SMAD6] | 2.44 ± 0.43 | 2.18 ± 0.16 | – | – |
| WHDTCFVCAICQINLEGKTFYSKK [PDLIM7] | 2.24 ± 0.29 | 2.21 ± 0.15 | – | – |
| APAGDKGFQPPSPSLRPRPASSIS [DMRTC1] | 4.61 ± 0.15 | 4.57 ± 0.26 | – | – |
| VGSDEEDDSGKDKKKKTKKIKEKY [HSP90AB1] | 5.31 ± 0.47 | 5.32 ± 0.42 | – | – |
| FSQSAGLIQHQRIHKGEKPYQCSQ [ZSCAN9] | 3.55 ± 0.071 | 3.68 ± 0.18 | – | – |
| FTPPTSLTRAGMSYYNSPGLHVQH [CCDC6] | 2.49 ± 0.52 | 2.84 ± 0.34 | – | – |
| NSSQSSSDGSCKTAGEMVFVYENA [BTBD10] | 4.22 ± 0.3 | 4.15 ± 0.22 | – | – |
| LHKFPYRMVPALPPKRMLGADREF [SNX8] | 2.55 ± 0.15 | 2.67 ± 0.32 | – | – |
| FALASLLQSAPDVKGRVRCLTAGP [ZSWIM9] | 2.02 ± 0.29 | 2.42 ± 0.24 | – | – |
| YKCSWCGKSFSQNTNLHTHQRTHT [ZNF75A] | 4.65 ± 0.45 | 4.29 ± 0.54 | – | – |
| TALPPMNEARHNFGIVEIDGMLYI [GAN] | 2.24 ± 0.31 | 2.08 ± 0.26 | – | – |
| WTAPLVMRTTNLDNRCKLFDSPSL [CDC25A] | 2.4 ± 0.17 | 2.52 ± 0.28 | – | – |
| QVLYEWEQGFSQSFTQEQVADIDG [CTNNB1] | 4.24 ± 0.3 | 4.09 ± 0.46 | – | – |

Reference: the supplement of paper PMC10567573
